{"source": "paper PMC5712522", "about": "(Nature Communications, 2017)", "proteins": {"B1": {"name": "LIMP-2 luminal domain H150A (domain or fragment, UniProt Q14108 28-431, looked up)", "chain": "VFQKAVDQSIEKKIVLRNGTEAFDSWEKPPLPVYTQFYFFNVTNPEEILRGETPRVEEVGPYTYRELRNKANIQFGDNGTTISAVSNKAYVFERDQSVGDPKIDLIRTLNIPVLTVIEWSQVAFLREIIEAMLKAYQQKLFVTHTVDELLWGYKDEILSLIHVFRPDISPYFGLFYEKNGTNDGDYVFLTGEDSYLNFTKIVEWNGKTSLDWWITDKCNMINGTDGDSFHPLITKDEVLYVFPSDFCRSVYITFSDYESVQGLPAFRYKVPAEILANTSDNAGFCIPEGNCLGSGVLNVSICKNGAPIIMSFPHFYQADERFVSAIEGMHPNQEDHETFVDINPLTGIILKAAKRFQINIYVKKLDDFVETGDIRTMVFPVMYLNESVHIDKETASRLKSMINT", "notes": "LIMP-2 (SCARB2), soluble luminal domain, residues 28–431, with H150A; also called dimerization-deficient mutant; source: Expi293F (HEK), purified in the same manner as the wild-type protein"}, "B2": {"name": "LIMP-2 luminal domain H150A/F151D (domain or fragment, UniProt Q14108 28-431, looked up)", "chain": "VFQKAVDQSIEKKIVLRNGTEAFDSWEKPPLPVYTQFYFFNVTNPEEILRGETPRVEEVGPYTYRELRNKANIQFGDNGTTISAVSNKAYVFERDQSVGDPKIDLIRTLNIPVLTVIEWSQVADLREIIEAMLKAYQQKLFVTHTVDELLWGYKDEILSLIHVFRPDISPYFGLFYEKNGTNDGDYVFLTGEDSYLNFTKIVEWNGKTSLDWWITDKCNMINGTDGDSFHPLITKDEVLYVFPSDFCRSVYITFSDYESVQGLPAFRYKVPAEILANTSDNAGFCIPEGNCLGSGVLNVSICKNGAPIIMSFPHFYQADERFVSAIEGMHPNQEDHETFVDINPLTGIILKAAKRFQINIYVKKLDDFVETGDIRTMVFPVMYLNESVHIDKETASRLKSMINT", "notes": "LIMP-2 (SCARB2), soluble luminal domain, residues 28–431, with H150A and F151D; also called dimerization-deficient mutant; source: Expi293F (HEK), purified in the same manner as the wild-type protein"}}, "target": "the molecule itself", "assay": "SEC-MALS; Shodex KW404-4F column; 50 μg of protein; PBS pH 7.2"}
{"protein": "B1", "values": [{"measurement": "binding result", "value": "binds"}]}
{"protein": "B2", "values": [{"measurement": "binding result", "value": "binds"}]}
